Laboratory results: patent US20090104207A1

Molecular target: E1s (hepatitis C virus)
Test: coating ELISA, E1s at 0.5 µg/ml, hybridoma supernatant

- O.D. (450-595 nm): > 2 O.D.
Substance: 4G2 (antibody)
